Data as given in the supplement of paper PMC7877785.
± gives the uncertainty stated by the source.

Test: self-splicing fitness, log relative to wild type (ln ratio); higher = more splicing; Tetrahymena group I intron in knt gene, E. coli kanamycin selection, DiMSum; sequences stand for … in CUCUCU…GGAGGGAAAAGUUAUCAGGCAUGCACCUGGUAGCUAGUCUUUAAACCAAUAGAUUGCAUCGGUUUAAAAGGCAAGACCGUCAAAUUGCGGGAAAGGGGUCAACAGCCGUUCAGUACCAAGUCUCAGGGGAAACUUUGAGAUGGCCUUGCAAAGGGUAUGGUAAUAAGCUGACGGACAUGGUCCUAACCACGCAGCCAAGUCCUAAGUCAACAGAUCUUCUGUUGAUAUGGAUGCAGUUCACAGACUAAAUGUCGGUCGGGGAAGAUGUAUUCUUCUCAUAAGAUAUAGUCGGACCUCUCCUUAAUGGGAGCUAGCGGAUGAAGUGAUGCAACACUGGAGCCGCUGGGAACUAAUUUGUAUGCGAAAGUAUAUUGAUUAGUUUUGGAGUACUCGUGGUCG
Procedure, shortened: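 Pooled colonies went to amplicon sequencing on an Illumina HiSeq 2500 after six replicate transformations. The plates were LB agar with 100 μg/mL carbenicillin, 50 μM IPTG and 0.2% rhamnose, with or without 25 μg/mL kanamycin, incubated overnight at 37°C or 30°C. The E. coli BL21(DE3) library had all eight P1ex-region intron nucleotides randomised, the intron placed in the knt kanamycin-resistance gene on pET-22b(+). DiMSum fitness is the error-weighted combination of replicate fold changes, kanamycin against none, normalised to wild type.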

Row | Sequence | self-splicing fitness (ln) (30 °C) | self-splicing fitness (ln) (37 °C)
1 | CUCGAGCAAUAUUACGGAUA | -2.79 ± 0.28 | -3.68 ± 0.46
2 | UCUGAGCAAUAUUACGAAGA | -1.67 ± 0.21 | -0.838 ± 0.27
3 | ACCAAGCAAUAUUACGUCUU | -4.21 ± 0.14 | -2.59 ± 0.12
4 | CUAUAGCAAUAUUACGGAGU | -4.03 ± 0.28 | -2.86 ± 0.26
5 | GCAGAGCAAUAUUACGUCAC | -3.67 ± 0.34 | -2.48 ± 0.32
6 | GUCGAGCAAUAUUACGGUCA | -1.37 ± 0.26 | -0.499 ± 0.24
7 | AACAAGCAAUAUUACGUUUA | -2.45 ± 0.09 | -1.07 ± 0.074
8 | CUACAGCAAUAUUACGGUCC | -2.72 ± 0.18 | -2.15 ± 0.24
9 | CGUUAGCAAUAUUACGAUAA | -2.9 ± 0.26 | -1.52 ± 0.22
10 | CUCCAGCAAUAUUACGGUCC | -3.11 ± 0.17 | -2.83 ± 0.38
11 | AUGUAGCAAUAUUACGCGCU | -0.77 ± 0.14 | -0.00271 ± 0.15
12 | CGUGAGCAAUAUUACGGUCU | -2.56 ± 0.17 | -2.16 ± 0.42
13 | UGCUAGCAAUAUUACGUGUA | -1.74 ± 0.1 | -1.26 ± 0.1
14 | CACAAGCAAUAUUACGGACC | -3.41 ± 0.24 | -1.73 ± 0.2
15 | AGGUAGCAAUAUUACGACAG | -1.6 ± 0.017 | -0.956 ± 0.034
16 | GUUAAGCAAUAUUACGCGGU | -3.3 ± 0.22 | -2.65 ± 0.2
17 | AAUAAGCAAUAUUACGAAAA | -2.98 ± 0.28 | -1.76 ± 0.2
18 | UUGGAGCAAUAUUACGCCAA | -1.49 ± 0.44 | 
19 | AGUUAGCAAUAUUACGCGAA | -2.29 ± 0.15 | -1.1 ± 0.13
20 | CCUGAGCAAUAUUACGCUUU | -1.94 ± 0.17 | -3.14 ± 0.28
21 | UGUCAGCAAUAUUACGAGCG | 0.308 ± 0.083 | 0.59 ± 0.11
22 | GGCUAGCAAUAUUACGAGCU | -2.9 ± 0.47 | -1.65 ± 0.31
23 | UCAUAGCAAUAUUACGAGCA | -0.736 ± 0.2 | -1.11 ± 0.23
24 | CAUAAGCAAUAUUACGUAGA | -3.68 ± 0.13 | -1.97 ± 0.12
25 | GCUCAGCAAUAUUACGGAGA | -0.638 ± 0.095 | 0.284 ± 0.14
26 | CGCCAGCAAUAUUACGCACA | -1.68 ± 0.2 | -1.65 ± 0.27

Row | Sequence | self-splicing fitness (ln) (30 °C) | self-splicing fitness (ln) (37 °C)
27 | AGCAAGCAAUAUUACGGCGA | -0.386 ± 0.094 | -0.039 ± 0.11
28 | CAGAAGCAAUAUUACGCUAU | -3.4 ± 0.16 | -3.04 ± 0.16
29 | UGUUAGCAAUAUUACGAAGA |  | -1.54 ± 0.4
30 | UGGAAGCAAUAUUACGUAAU | -3.03 ± 0.18 | -0.953 ± 0.16
31 | GGCAAGCAAUAUUACGUUGA | -0.666 ± 0.066 | -0.307 ± 0.092
32 | CGCAAGCAAUAUUACGGCCG | -1.1 ± 0.14 | -0.644 ± 0.26
33 | UAUGAGCAAUAUUACGCGAC | -2.82 ± 0.44 | -0.954 ± 0.39
34 | CACUAGCAAUAUUACGCGCC | -2.9 ± 0.23 | -1.22 ± 0.22
35 | GGAGAGCAAUAUUACGGGCU | -2.73 ± 0.27 | 
36 | AAGUAGCAAUAUUACGGUGG | -3.62 ± 0.22 | -2.85 ± 0.26
37 | AAGUAGCAAUAUUACGAUAU | -1.21 ± 0.066 | -0.506 ± 0.084
38 | GUAAAGCAAUAUUACGCCAG | -1.89 ± 0.083 | -1.21 ± 0.14
39 | GGAUAGCAAUAUUACGAACU | -0.708 ± 0.15 | -0.573 ± 0.19
40 | UACAAGCAAUAUUACGGGGC | -5.04 ± 0.34 | -2.46 ± 0.17
41 | UGCUAGCAAUAUUACGGGGA | -0.989 ± 0.14 | 0.0335 ± 0.14
42 | GAGAAGCAAUAUUACGGCGC | 0.341 ± 0.21 | -0.241 ± 0.22
43 | GUACAGCAAUAUUACGGGAA | -3.59 ± 0.25 | -2.24 ± 0.22
44 | UCAAAGCAAUAUUACGCACA | -0.843 ± 0.079 | -0.191 ± 0.082
45 | CCAUAGCAAUAUUACGGUGU | -4.24 ± 0.17 | -2.58 ± 0.15
46 | CGCUAGCAAUAUUACGACGA | -1.46 ± 0.15 | 0.422 ± 0.16
47 | AUUAAGCAAUAUUACGCUAU | -3.62 ± 0.26 | -1.73 ± 0.26
48 | AUUUAGCAAUAUUACGACGG | -1.79 ± 0.18 | -0.641 ± 0.16
49 | ACAGAGCAAUAUUACGGAUU | -3.67 ± 0.18 | -1.84 ± 0.14
50 | ACUUAGCAAUAUUACGAACG | -1.16 ± 0.089 | -0.581 ± 0.1
51 | GUUUAGCAAUAUUACGCACG | -2.48 ± 0.44 | 
52 | UUGAAGCAAUAUUACGACGA | 0.302 ± 0.12 | 0.04 ± 0.14

Row | Sequence | self-splicing fitness (ln) (30 °C) | self-splicing fitness (ln) (37 °C)
53 | AAAGAGCAAUAUUACGGAUA | -2.75 ± 0.27 | -1.92 ± 0.3
54 | UGUGAGCAAUAUUACGGACA | -1.44 ± 0.13 | 0.089 ± 0.13
55 | UUCUAGCAAUAUUACGUCUC | -3.85 ± 0.37 | -2.23 ± 0.25
56 | CACAAGCAAUAUUACGGAUA | -1.79 ± 0.15 | -2.4 ± 0.17
57 | AGUCAGCAAUAUUACGUAGA | -2.08 ± 0.095 | -0.757 ± 0.098
58 | CAGCAGCAAUAUUACGCAGA | -2.32 ± 0.28 | -1.19 ± 0.13
59 | GGAGAGCAAUAUUACGUCCG | -1.5 ± 0.1 | -0.937 ± 0.13
60 | GACUAGCAAUAUUACGUGCU | -3.61 ± 0.16 | -1.9 ± 0.12
61 | AGAGAGCAAUAUUACGGUAU | -3.91 ± 0.37 | -3.55 ± 0.29
62 | CCGAAGCAAUAUUACGCUGC | -2.89 ± 0.34 | -2.4 ± 0.45
63 | GUCAAGCAAUAUUACGGUCA | -1.24 ± 0.12 | -0.86 ± 0.12
64 | GGCAAGCAAUAUUACGUACC | -1.35 ± 0.065 | -0.299 ± 0.083
65 | AUCAAGCAAUAUUACGAAAC | -3.16 ± 0.2 | -3.17 ± 0.28
66 | CGCCAGCAAUAUUACGCGAA | -2.14 ± 0.15 | -1.38 ± 0.15
67 | GGUGAGCAAUAUUACGCUCU | -3.87 ± 0.42 | -2.42 ± 0.41
68 | CUUUAGCAAUAUUACGAGUG | -0.24 ± 0.06 | -0.267 ± 0.077
69 | CCGGAGCAAUAUUACGAACG | -0.608 ± 0.16 | 0.0318 ± 0.19
70 | GACUAGCAAUAUUACGGCGA | -0.738 ± 0.079 | -0.303 ± 0.081
71 | GUAUAGCAAUAUUACGUAGG | -3.15 ± 0.16 | -1.47 ± 0.14
72 | GGCCAGCAAUAUUACGCGCG | -0.959 ± 0.089 | -0.284 ± 0.12
73 | CCACAGCAAUAUUACGCCAC | -3.52 ± 0.27 | -2.54 ± 0.27
74 | ACAUAGCAAUAUUACGGAGU | -3.73 ± 0.12 | -2.55 ± 0.13
75 | GAUCAGCAAUAUUACGUAUG | -0.935 ± 0.084 | -0.276 ± 0.097
76 | UCCCAGCAAUAUUACGUCGU | -1.69 ± 0.085 | -0.682 ± 0.11
